Test results taken from publication PMC10526137, “Development of a High-Accuracy, Low-Cost, and Portable Fluorometer with Smartphone Application for the Detection of Urinary Albumin towards the Early Screening of Chronic Kidney and Renal Diseases”.

Biological target: human serum albumin (HSA) (Homo sapiens, UniProt P02768 25-609)
Assay: graphene oxide fluorescence recovery (aptamer release from GO); GO-aptamer complex, PBS pH 7.4, HSA 0.001-1.5 mg/mL; LOD 0.203 ug/mL, no Kd; PBS pH 7.4, room temperature; 15 uL of 5 uM Cy5-H8 + 85 uL GO-PBS (15 uL of 5 mg/mL GO in 70 uL PBS) 5 min in the dark, then 100 uL HSA for 30 min; also artificial urine
Conditions: protein: commercial; label: 5'-Cy5

Chain of human serum albumin (HSA) (P02768 25-609): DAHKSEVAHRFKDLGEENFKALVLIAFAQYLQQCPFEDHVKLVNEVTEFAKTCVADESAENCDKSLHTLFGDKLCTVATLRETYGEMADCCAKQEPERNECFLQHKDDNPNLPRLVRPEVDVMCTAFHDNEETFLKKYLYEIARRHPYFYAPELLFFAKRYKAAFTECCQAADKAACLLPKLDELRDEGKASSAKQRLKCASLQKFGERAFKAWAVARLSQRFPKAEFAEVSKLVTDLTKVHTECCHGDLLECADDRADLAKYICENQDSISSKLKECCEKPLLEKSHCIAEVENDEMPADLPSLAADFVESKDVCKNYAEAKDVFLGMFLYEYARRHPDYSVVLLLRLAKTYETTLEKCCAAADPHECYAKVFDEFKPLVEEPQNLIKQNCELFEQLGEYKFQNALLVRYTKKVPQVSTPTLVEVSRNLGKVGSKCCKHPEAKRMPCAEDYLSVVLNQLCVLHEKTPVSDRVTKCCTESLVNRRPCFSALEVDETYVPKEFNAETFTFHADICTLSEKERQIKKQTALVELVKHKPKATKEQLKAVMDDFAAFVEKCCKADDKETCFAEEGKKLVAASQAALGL

B1: H8 albumin aptamer (ssDNA)
DNA: ATACCAGCTTATTCAATTCCCCCGGCTTTGGTTTAGAGGTAGTTGCTCATTACTTGTACGCTCCGGATGAGATAGTAAGTGCAATCT
  binding result: binds
